Source: patent publication US20120128689A1 (GlaxoSmithKline, published 2012)
Numbering of substitutions follows the chain as printed.

T1: cyno IL-23 (cyno, limits assumed)
T1 construct: Heterodimer of p19 and p40; also called cynomolgus IL-23
T1 chain 1: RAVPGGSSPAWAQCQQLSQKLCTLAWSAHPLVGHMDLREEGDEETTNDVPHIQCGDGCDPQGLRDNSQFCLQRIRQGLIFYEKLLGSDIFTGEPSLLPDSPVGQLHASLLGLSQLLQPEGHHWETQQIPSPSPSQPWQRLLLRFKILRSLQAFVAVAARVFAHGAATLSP
T1 chain 2: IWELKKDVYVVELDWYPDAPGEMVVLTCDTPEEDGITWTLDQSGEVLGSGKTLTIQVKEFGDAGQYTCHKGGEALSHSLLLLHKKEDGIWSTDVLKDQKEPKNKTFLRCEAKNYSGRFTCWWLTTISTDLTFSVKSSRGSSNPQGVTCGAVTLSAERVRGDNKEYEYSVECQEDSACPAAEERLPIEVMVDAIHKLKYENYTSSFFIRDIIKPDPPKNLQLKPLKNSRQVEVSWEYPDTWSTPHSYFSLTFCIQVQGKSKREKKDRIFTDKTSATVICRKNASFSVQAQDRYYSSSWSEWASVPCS

T2: human IL-23 (human, UniProt Q9NPF7 20-189; P29460 23-328)
T2 construct: Heterodimer of p19 and p40; also called hIL-23
T2 sequence 1: T1 chain 1 with A12T, R75H, P131L
T2 sequence 2: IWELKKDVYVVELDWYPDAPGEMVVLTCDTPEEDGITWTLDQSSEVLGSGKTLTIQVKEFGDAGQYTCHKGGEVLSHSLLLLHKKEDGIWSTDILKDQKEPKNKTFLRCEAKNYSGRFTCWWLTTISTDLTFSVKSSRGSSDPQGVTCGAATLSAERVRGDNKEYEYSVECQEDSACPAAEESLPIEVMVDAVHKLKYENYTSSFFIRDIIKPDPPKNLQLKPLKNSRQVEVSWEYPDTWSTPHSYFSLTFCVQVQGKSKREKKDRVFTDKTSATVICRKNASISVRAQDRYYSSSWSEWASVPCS

B1: A3M0 (antibody, human IgG1, kappa, V domains shown)
VH: QVQLVQSGAEVKKPGSSVKVSCKASGYTFTSYGITWVRQAPGQGLEWMGENYPRSGNTYYNEKFKGRVTITADKSTSTAYMELSSLRSEDTAVYYCARSEFISTVVAPYYYALDYWGQGTLVTVSS
VL: DIVMTQSPDSLAVSLGERATINCKASKKVTIFGSISALHWYQQKPGQPPKLIYNGAKLESGVPDRFSGSGSGTDFTLTISSLQAEDVAVYYCLQNKEVPYTFGGGTKVEIKR
notes: human gamma1 and kappa constant regions; Tested as HEK supernatant and as purified antibody; also called A3M0 purified
B2: A5M20 (antibody, human IgG1, kappa, V domains shown)
VH: B1 VH with S99A
VL: B1 VL with G55L
B3: A5M12 (antibody, human IgG1, V domains shown)
VH: B1 VH with S99A
VL: DIVMTQSPDSLAVSLGERATINCKASKKVTIYGSTSALHWYQQKPGQPPKLIYNGAKPESGVPDRFSGSGSGTDFTLTISSLQAEDVAVYYCLQNKEVPYTFGGGTKVEIK
B4: A5M0 (antibody, human IgG1, kappa, V domains shown)
VH: B1 VH with S99A
VL: B1 VL
B5: A24AM4 (antibody, human IgG1, kappa, V domains shown)
VH: B1 VH with T58I, S99A
VL: B1 VL with I35T, L58P
B6: A5M21 (antibody, human IgG1, kappa, V domains shown)
VH: B1 VH with S99A
VL: B1 VL with F32Y, I35T, G55L, L58P
B7: A24AM18 (antibody, human IgG1, kappa, V domains shown)
VH: B1 VH with T58I, S99A
VL: B1 VL with I35T, G55L, L58P
B8: A6M20 (antibody, human IgG1, kappa, V domains shown)
VH: B1 VH with S99V
VL: B1 VL with G55L
B9: A3M18 (antibody, human IgG1, kappa, V domains shown)
VH: B1 VH
VL: B1 VL with I35T, G55L, L58P

Target: T1, cyno IL-23
Test: SPR Biacore T100, purified mAb captured on anti-human IgG, one concentration of cyno IL-23 (256 nM)

| Kd [nM] | koff [s⁻¹] | kon [M⁻¹ s⁻¹] | Binder |
| --- | --- | --- | --- |
| 0.332 | 0.000583 | 1.76e+06 | B1 |

Target: T2, human IL-23
Test: SPR Biacore T100, purified mAb captured on anti-human IgG, human IL-23 64-0.062 nM

| Kd [nM] | koff [s⁻¹] | kon [M⁻¹ s⁻¹] | Binder |
| --- | --- | --- | --- |
| 0.197 | 0.000235 | 1.19e+06 | B1 |

Target: T1, cyno IL-23
Test: SPR Biacore, purified mAb captured on anti-human IgG, cyno IL-23 64-0.062 nM
Protocol: (§1) An anti-human IgG (Biacore BR-1008-39) was immobilised on a Biacore CM5 chip by primary amine coupling in accordance with the manufacturer's instructions. Anti IL-23 antibodies were captured on this surface and after a period of stabilisation, IL-23 (cyno or human) was passed over the antibody captured surface and a binding sensorgram was obtained. […] All runs were double referenced with a buffer injection over the captured antibody surface. Data was analysed using the 1:1 model using the software inherent to the Biacore T100. Analysis was carried out at 25° C. using HBS-EP buffer. Data presented in Tables 1 and 2 are on tissue culture supernatants of HEK cells transiently expressing the antibody of interest unless otherwise indicated.
(§2) This experiment was repeated with purified IL-23 antibodies and data shown in Table 3 was generated using 64, 16, 4, 1, 0.25 and 0.062 nM concentrations of human and cyno IL-23.

| Kd [nM] | koff [s⁻¹] | kon [M⁻¹ s⁻¹] | Binder |
| --- | --- | --- | --- |
| 0.086 | 0.000176 | 2.05e+06 | B2 |
| 0.093 | 0.000134 | 1.45e+06 | B3 |
| 0.173 | 0.000224 | 1.3e+06 | B4 |
| 0.085 | 0.000147 | 1.74e+06 | B5 |
| 0.302 | 0.000298 | 984000 | B1 |
| 0.075 | 0.00012 | 1.6e+06 | B6 |
| 0.07 | 0.000132 | 1.88e+06 | B7 |

Target: T2, human IL-23
Test: inhibition ELISA: antibody pre-incubated with a constant concentration of human IL-23, IL-23 bound to plate-coated human IL23R Fc chimera detected with biotinylated anti-human IL12, OD450
Protocol: Plates were coated with human IL23R Fc chimera at […] (phosphate buffered saline). 50 μl/well of this mixture was incubated overnight at 4° C. The plates were then washed three times with Phosphate Buffered Saline with 0.05% Tween 20 (PBST). Plates were blocked with 4% skim milk powder (Fluka BioChemika #70166) PBST 100 μl/well for a minimum of 1 hour at room temperature. The plates were then washed three times with Phosphate Buffered Saline+0.05% Tween 20 (PBST). Various concentrations of antibody were incubated in a separate plate with a constant concentration of IL-23 for 1 hour at room temperature. 50 ul of each mixture were transferred to the assay plate and incubated at RT for 1 hr. They were then washed three times with Phosphate Buffered Saline+0.05% Tween 20 (PBST). Bound IL23 was detected by anti human IL12 Biotin labelled Ab (R&D systems BAF219) diluted to 100 ng/ml in 4% skim milk powder (Fluka BioChemika #70166) PBST. 50 μl/well of the biotinylated antibody was added and incubated at RT for 1 hour. The plates were then washed three times with Phosphate Buffered Saline+0.05% Tween 20 (PBST). SA HRP (GE healthcare RPN4401) was diluted 1/4000 in 4% skim milk powder (Fluka BioChemika #70166) PBS, 50 μl/well was added to the plates. The plates were then washed three times with Phosphate Buffered Saline+0.05% Tween 20 (PBST). 50 ul/well of TMB was added to the plates and incubated at RT for 15 min. 25 μl/well of 3 MH₂SO₄ was added to the wells already containing TMB. The plate was read at OD450 nm using the SOftmaxPRO versamax plate reader.

| IC50 (read off the curve) [nM] | Binder |
| --- | --- |
| ~0.2 | B2 |
| ~0.2 | B3 |
| ~0.3 | B4 |
| ~0.2 | B5 |
| ~0.7 | B1 |
| ~0.2 | B6 |
| ~0.2 | B7 |

Target: T2, human IL-23
Test: SPR Biacore, purified mAb captured on anti-human IgG, human IL-23 64-0.062 nM
Protocol: as §1, §2

| Kd [nM] | koff [s⁻¹] | kon [M⁻¹ s⁻¹] | Binder |
| --- | --- | --- | --- |
| 0.061 | 0.00014 | 2.29e+06 | B2 |
| 0.08 | 0.000132 | 1.66e+06 | B3 |
| 0.114 | 0.000175 | 1.54e+06 | B4 |
| 0.065 | 0.000132 | 2.02e+06 | B5 |
| 0.186 | 0.000216 | 1.16e+06 | B1 |
| 0.064 | 0.000112 | 1.74e+06 | B6 |
| 0.053 | 0.000115 | 2.16e+06 | B7 |

Target: T2, human IL-23
Test: SPR Biacore T100, mAb from HEK supernatant captured on anti-human IgG, human IL-23 64-0.062 nM
Protocol: as §1

| Kd [nM] | koff [s⁻¹] | kon [M⁻¹ s⁻¹] | Binder |
| --- | --- | --- | --- |
| 0.066 | 0.000159 | 2.41e+06 | B2 |
| 0.078 | 0.000205 | 2.62e+06 | B8 |
| 0.207 | 0.000239 | 1.16e+06 | B1 |
| 0.065 | 0.000113 | 1.73e+06 | B6 |
| 0.066 | 0.000115 | 1.73e+06 | B9 |
| 0.051 | 0.000122 | 2.4e+06 | B7 |

Target: T2, human IL-23
Test: cell-based or functional assay

| IC50 (inhibition of IL-23 driven STAT3 phosphorylation in human activated T cell blasts) [nM] | Binder |
| --- | --- |
| 0.0685 | B2 |
| 0.115 | B1 |
| 0.0384 | B6 |
| 0.0473 | B7 |

Target: T1, cyno IL-23
Test: SPR Biacore T100, mAb from HEK supernatant captured on anti-human IgG, one concentration of cyno IL-23 (256 nM)
Protocol: as §1

| Kd [nM] | koff [s⁻¹] | kon [M⁻¹ s⁻¹] | Binder |
| --- | --- | --- | --- |
| 0.115 | 0.000306 | 2.66e+06 | B2 |
| 0.136 | 0.000497 | 3.65e+06 | B8 |
| 0.365 | 0.000484 | 1.33e+06 | B1 |
| 0.169 | 0.000123 | 727000 | B6 |
| 0.185 | 0.000163 | 883000 | B9 |
| 0.092 | 0.000176 | 1.91e+06 | B7 |
